Literature values in US6355270B1, “Particles for oral delivery of peptides and proteins” (The Regents of the University of California, priority 1999, dated 2002).
Read-outs that look alike come from different tables or passages of the source.

How the values were obtained:
[1] = system: intestinal tight junctions; conditions: in vivo
[2] = system: diabetic rats
[3] = system: intestinal tight junctions; conditions: rabbit intestine, in vitro, reversible

Zonula occludens toxin [Zot]
increase of insulin absorption ([1]; both rabbit jejunum and ileum): 10 fold | change of insulin absorption ([1]; rabbit colon): no substantial changes | increase of IgG absorption ([1]; rabbit ileum): six-fold | increase of IgG absorption ([1]; rabbit jejunum): twofold | survival time ([2]; diabetic animals chronically treated with oral insulin+Zot, versus parenterally treated rats): comparable to that observed in parenterally treated rats | lowering of serum glucose concentrations ([2]; diabetic rats, oral insulin co-administered with Zot, versus parenteral injection of insulin): comparable to those obtained after parenteral injection of the hormone | increase of intestinal permeability to insulin ([3]; P=0.034): 72% | increase of intestinal permeability to immunoglobulins ([3]; P=0.04): 52%
